The domain aggregation screens of Martell et al. (2025)

assay: soluble fraction after stress (log2 fold change); higher = more stays soluble; pooled small domains, quantitative proteomics; details: stress: 50 degC
Method in brief: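 Pooled custom libraries of small protein domains were each held under stress at 50°C. The read-out, high-throughput quantitative proteomics, tracked how much of each protein stayed soluble. This is reported as a base-two log fold change used to indicate aggregation propensity. Higher values mean more protein remains in solution.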

Row | Sequence | soluble fraction (log2)
1 | HMGVGVPVTLLLEKLGEDTLSAQQIMERLGLKSRASFRKVYLVPALEQKLIEMEFPDKPNSSKQRYRR | -0.853
2 | HMVITISEADVSGTYTKSITQGDWKYIRTWTPFEDERLYDLAKDPMELRDLAPAAPSKLAELRELLSALVS | -1.51
3 | HMERLKYSQVVDLFKGEQVKSFVLDESNQLKMELQDGSTVSYKLRSFEQFYLDLSDTVKEQKESGIITDYD | -0.746
4 | HMPNDYRKKLEILAKEKGAEYLHTMLTEVDPKSALQIHTNNIKRTIRALEFYHQTGMKISEHNEAEREK | 0.0272
5 | HMIYSKSDLELFGIKKIDVMEENILMLILSEYELDQTPKNILIDEAVRLSKKFGADNAYKFVNATLDTLL | -0.944
6 | HMLTLAVPNSINMRLDKYLSENIDYLSRSKIQGLINDGKVTINGENEKSSYKLNGDESIVIYYEE | -0.0746
7 | HMFIGFLHQLKEAGVPVSIREYLDFLSGLDKGITNLNTNSFYHFARASLVKDERHYDRFDRTFSEFFEGAL | -3
8 | HMQVDENNINKRIDKYLSENTEYSRSTIQKMIDNGNITVNSKPTKSSYKLELNDIITIDNNFKE | 0.369
9 | HMGSWEDALKNWVDSALASGQKGILEQAVPKFERIMIETALTHTAGRRRDASLLLGWGRNTLTRKIKELGI | -0.214
10 | HMLMYAQDEKEEASNNIPYRLLHMSFTKEQKAELQRAMDVRVPKDIILSYFYPDTPVARMMEIRRQYESA | -0.472
11 | HMKASTRELLDFVLSQRGVSTASVAKALGISVQNASTRLKKLSNEGLIIRSEASSLTGGIEFLYS | -0.799
12 | HMDYPFQYFNYSHLRILGVPAQLIKAVRKAPTLDAIEQLSGLSEKTKLWLLELATEPKLEDVLFDPGR | -1.44
13 | HMKYEGEDEYYASLVTEKIAAIGTVTEESEDAIKEARAAYDALTSAQKKLVTNYDVLDEAEK | 0.371
14 | HMRAAEPTTDAQRDRRRRIVLTAMTMLQERGYDEIQMRDVAQQAGVALGTLYRYFPSKEQLFAHVLVE | -0.599
15 | HMQGQVLQETARKARSQLDSEIPGFNDALYQNLIKSSENYGYKAEEVAQWVDPRAIKVLNDAYQFQQLKAG | -0.0765
16 | HMSEVIYVAEDNVGQRIDVFLVNKLVDASRANIQKNIVDGVILVNNKNVKANYKLRLGDVVEIRTQ | 0.156
17 | HMSNLENSLNESLSLLKSNKYNEALEILKKIEIEDSRVFFLLGTIYSVMKNINLGEEFLIKASK | -1.48
18 | HMSMHVHTPNPDFKPSNTNALQEGQLVEHPKFGFGKVQKIETEGLNKKASIQFEHFGEKTLLLSFAKLRII | 0.0178
19 | HMPQGFEDLTEREREVLTLIAEGRTNQEIADALVISIKTVNRHRENIMAKLNLHSRVELVRYAIAQGLI | -0.474

Row | Sequence | soluble fraction (log2)
20 | HMTKYEKKIFEIVNASRDHLTAEQVLAALREEYPAVSQATVYNNLKKLTSDGLLRKLTLADSPDRYD | -0.208
21 | HMISEWDAAYSYAKQYYEENGHLFVPKKYVTSEGAALGKWIWEQRDSYLGLSSYKISDKKIEMLEDIGMFW | -4.02
22 | HMDEKLAHKLVSDFRQAAASLERFPFRNPVLRSEVFTVEKYRKLVFDKYHILLYQVKDQVVYVEYVIDGRQ | -0.75
23 | HMTGIESVKPSSDFTVEGNRIVAGDAEVEVYDLAGRKVNNNNLTTGVYIAKIAGSAESVKVFV | 0.0109
24 | HMDLANRSLDRGITILESLARNGASSLADLHRDSGIAKSTIRRLLGTLIQHRLVRRSVADGLYRVTIPLPA | -1.18
25 | HMAAMDMFVKLDALDAELTEQLKALPAEPDDARVERGLALLTDYDHRIKALLTEIFGGENDFDKVL | -2.4
26 | HMNLQAYQSVLDKLNEEYGTTFRFPTEEELHEVGLTNTVDPRTATVSATEFEKYMRPIAERISQANL | -0.00884
27 | HMKKSRLHSVLEEIPGIGEKRRKILIKHFGTVEAIKKSSLEELARIKGMNRRAAQNVLEYLK | -0.0583
28 | HMDLFLVYQFIRRLATPFTEWKAHELGIIDDKGVQLKKRRDFTTREEKDAYGIFDIMITKLKRLIEKV | -0.255
29 | HMKAKTYTVQYIDEGKIIKEEELEEGSIINAPEVTKEGHTFIGWYEGEEKYDVYEPITRNLILESKNEIN | -0.137
30 | HMINIQYSYNDGKETLHNLSPEVIAEKIMDDPNGYHIVWKQGMVGWVNANDIDDIAKLLRQKK | -0.0619
31 | HMGGEAEVLQSIDEGREVEVRSVAADGSAEVIYRGARWRARAAVGSLAAGRWTIGRVDGTELVLEK | -0.0207
32 | HMELLSGTVEKVLTSGVLVKLPGGAIGFIPNSEMGTPRGTNHGKMFPAGTPLQVMVVEVNQDRGRITLSR | -1.45
33 | HMTRHIQVNDSIASTPIEDVYFSTRTYNALLNNGISVIGDLSKYTHDDLYASFQGLGRAGVLEIEAYLRQD | -1.53
34 | HMGDTPVDFSEFIRWVDTGVVDRVELTGNEIVGTSSSGERFSTYAPPQYEGLGNKLIERDIVVVATAA | -0.164
35 | HMNLGAHVYWRNHRAYGDFREYEDVGGGREALALPGSTWGTKDPRVAQALFAARLTEFQEARVGR | -1.05
36 | HMVEIGENIKKLRKAKRMTQKEVANQLNVTPQTISKWERNISYPDLDMLVKLSQLFHISTDALL | -0.0765
37 | HMISQATMEKMGLTNRERQLVDFIVRGASNQEISEKMFISINTVKIHVSNIFRKAGVRSRTELMDKYP | -3.49
